Assay results published in patent US20140242080A1 (Hoffmann-La Roche, published 2014).

Assays:
[1] = molecular target: T1, human CEA expressed on tumor cells (LS-174T, A549-huCEA, MKN-45, MC38-huCEA, HPAFII, BxPC-3, ASPC-1) (human, UniProt P06731 35-685); test: flow cytometry on A549-huCEA cells
T1 construct: whole, on cells; also called Carcinoembryonic antigen; CEACAM5
T1 sequence (looked up): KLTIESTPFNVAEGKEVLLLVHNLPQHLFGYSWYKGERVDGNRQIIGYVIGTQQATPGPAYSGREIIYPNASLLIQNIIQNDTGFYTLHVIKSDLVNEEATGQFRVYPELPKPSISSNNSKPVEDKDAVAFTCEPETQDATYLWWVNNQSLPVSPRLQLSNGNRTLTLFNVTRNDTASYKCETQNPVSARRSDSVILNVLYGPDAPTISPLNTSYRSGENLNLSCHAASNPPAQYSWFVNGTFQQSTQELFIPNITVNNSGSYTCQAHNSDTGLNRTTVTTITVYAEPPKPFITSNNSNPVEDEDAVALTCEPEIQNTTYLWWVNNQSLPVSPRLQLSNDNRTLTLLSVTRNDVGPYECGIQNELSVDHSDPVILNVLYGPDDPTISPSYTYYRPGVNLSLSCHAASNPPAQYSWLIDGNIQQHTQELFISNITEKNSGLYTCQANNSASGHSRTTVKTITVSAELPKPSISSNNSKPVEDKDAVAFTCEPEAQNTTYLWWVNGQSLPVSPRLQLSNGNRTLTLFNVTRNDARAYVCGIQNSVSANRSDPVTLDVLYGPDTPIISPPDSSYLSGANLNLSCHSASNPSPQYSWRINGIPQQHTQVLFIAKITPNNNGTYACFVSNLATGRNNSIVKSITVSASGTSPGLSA
Procedure: Briefly, cells were harvested, counted, checked for viability and resuspended at 2×10⁶ cells/ml in FACS buffer (100 μl PBS 0.1% BSA).

[2] = molecular target: T2, human NABA-avi-his (human); test: SPR Biacore T100, 25 C; t1/2 = ln 2/koff
T2 construct: Chimeric antigen with a C-terminal avi 6his tag; also called recombinant tumor target antigen
T2 chain: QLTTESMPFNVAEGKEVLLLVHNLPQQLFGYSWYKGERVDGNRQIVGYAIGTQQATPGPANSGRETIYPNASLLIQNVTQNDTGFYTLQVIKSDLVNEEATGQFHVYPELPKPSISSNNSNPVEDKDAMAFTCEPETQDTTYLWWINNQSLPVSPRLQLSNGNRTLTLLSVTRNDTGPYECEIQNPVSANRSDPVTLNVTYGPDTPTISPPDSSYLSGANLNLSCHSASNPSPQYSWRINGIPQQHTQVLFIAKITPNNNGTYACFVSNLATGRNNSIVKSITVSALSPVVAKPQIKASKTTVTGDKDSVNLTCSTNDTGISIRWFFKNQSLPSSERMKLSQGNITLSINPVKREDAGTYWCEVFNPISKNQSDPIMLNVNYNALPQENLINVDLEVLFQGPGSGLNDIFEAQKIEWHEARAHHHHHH
Procedure: (§1) Surface plasmon resonance (SPR) experiments were performed on a Biacore T100 at 25° C. with HBS-EP as running buffer (0.01 M HEPES pH 7.4, 0.15 M NaCl, 3 mM EDTA, 0.005% Surfactant P20, Biacore, Freiburg/Germany).
(§2) Kinetic constants were derived using the Biacore T200 Evaluation Software (vAA, Biacore AB, Uppsala/Sweden), to fit rate equations for 1:1 Langmuir binding by numerical integration. The half-life (t_{1/2}) of the interaction was calculated using following formula: t_{1/2}=ln 2/koff.

[3] = molecular target: T3, human CD3ε stalk-Fc (knob)-Avi/CD3δ-stalk-Fc(hole) (human); test: SPR Biacore T100, 25 C; t1/2 = ln 2/koff
T3 construct: also called Human CD3ε/CD3δ; recombinant CD3ε/CD3δ
T3 sequence (chain, as listed by the source mutant limits assumed, chain 1 of 2): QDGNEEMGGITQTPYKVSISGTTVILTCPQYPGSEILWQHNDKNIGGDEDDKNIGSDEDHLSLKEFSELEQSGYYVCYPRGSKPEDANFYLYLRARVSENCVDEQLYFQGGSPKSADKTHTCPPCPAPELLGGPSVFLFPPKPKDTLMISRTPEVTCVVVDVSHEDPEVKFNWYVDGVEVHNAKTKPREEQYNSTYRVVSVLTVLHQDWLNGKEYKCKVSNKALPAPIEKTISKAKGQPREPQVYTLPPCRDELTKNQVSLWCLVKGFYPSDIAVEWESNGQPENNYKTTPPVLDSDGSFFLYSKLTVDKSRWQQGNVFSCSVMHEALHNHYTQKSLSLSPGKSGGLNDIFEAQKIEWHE
T3 sequence (chain, as listed by the source mutant limits assumed, chain 2 of 2): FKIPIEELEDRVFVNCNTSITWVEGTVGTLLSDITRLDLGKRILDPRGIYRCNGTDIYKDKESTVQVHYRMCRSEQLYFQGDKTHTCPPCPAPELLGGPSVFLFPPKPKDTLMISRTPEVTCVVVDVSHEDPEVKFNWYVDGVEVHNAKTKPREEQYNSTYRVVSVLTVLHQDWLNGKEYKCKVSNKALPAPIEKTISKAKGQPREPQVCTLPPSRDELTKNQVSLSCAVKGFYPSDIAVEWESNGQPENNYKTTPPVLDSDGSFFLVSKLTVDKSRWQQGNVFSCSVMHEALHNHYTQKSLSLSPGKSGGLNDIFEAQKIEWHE
Procedure: as §1, §2

[4] = molecular target: T1, human CEA expressed on tumor cells …; test: cell-based or functional assay
[5] = molecular target: T2, human NABA-avi-his; test: SPR Biacore T100, 25 C; TCB captured via anti-human Fab, antigen as analyte
[6] = molecular target: T3, human CD3ε stalk-Fc …; test: as above
[7] = molecular target: T1, human CEA expressed on tumor cells …; test: cell-based or functional assay; remark: listed apart in the source

B1: CEA TCB (2+1 Crossfab-IgG P329G LALA inverted) (bispecific antibody)
chain 1: DIQMTQSPSSLSASVGDRVTITCKASAAVGTYVAWYQQKPGKAPKLLIYSASYRKRGVPSRFSGSGSGTDFTLTISSLQPEDFATYYCHQYYTYPLFTFGQGTKLEIKRTVAAPSVFIFPPSDEQLKSGTASVVCLLNNFYPREAKVQWKVDNALQSGNSQESVTEQDSKDSTYSLSSTLTLSKADYEKHKVYACEVTHQGLSSPVTKSFNRGEC
chain 2: QAVVTQEPSLTVSPGGTVTLTCGSSTGAVTTSNYANWVQEKPGQAFRGLIGGTNKRAPGTPARFSGSLLGGKAALTLSGAQPEDEAEYYCALWYSNLWVFGGGTKLTVLSSASTKGPSVFPLAPSSKSTSGGTAALGCLVKDYFPEPVTVSWNSGALTSGVHTFPAVLQSSGLYSLSSVVTVPSSSLGTQTYICNVNHKPSNTKVDKKVEPKSC
chain 3: not shown
chain 4: QVQLVQSGAEVKKPGASVKVSCKASGYTFTEFGMNWVRQAPGQGLEWMGWINTKTGEATYVEEFKGRVTFTTDTSTSTAYMELRSLRSDDTAVYYCARWDFAYYVEAMDYWGQGTTVTVSSASTKGPSVFPLAPSSKSTSGGTAALGCLVKDYFPEPVTVSWNSGALTSGVHTFPAVLQSSGLYSLSSVVTVPSSSLGTQTYICNVNHKPSNTKVDKKVEPKSCDKTHTCPPCPAPEAAGGPSVFLFPPKPKDTLMISRTPEVTCVVVDVSHEDPEVKFNWYVDGVEVHNAKTKPREEQYNSTYRVVSVLTVLHQDWLNGKEYKCKVSNKALGAPIEKTISKAKGQPREPQVCTLPPSRDELTKNQVSLSCAVKGFYPSDIAVEWESNGQPENNYKTTPPVLDSDGSFFLVSKLTVDKSRWQQGNVFSCSVMHEALHNHYTQKSLSLSPGK
notes: CH1A1A 98/99 2F1 as anti-CEA and humanized CH2527 as anti-CD3 antibody; also called CEA TCB antibody
[1]
  EC50: 6.6 nM
[2]
  t1/2: 5.3 min
[3]
  t1/2: 5.7 min
[4]
  EC50 of T cell-mediated killing (LDH release), A549-hCEA cells, cynomolgus PBMCs E:T 10:1, 40 h: 0.102 nM
  EC50 of T cell-mediated killing (LDH release), A549-hCEA cells, human PBMCs E:T 10:1, 40 h: 0.306 nM
[5]
  Kd: 62.4 nM
  koff: 0.00218 s⁻¹
  kon: 34900 M⁻¹ s⁻¹
[6]
  Kd: 75.3 nM
  koff: 0.00203 s⁻¹
  kon: 26900 M⁻¹ s⁻¹
[7]
  EC50 [pM] 48 h of T-cell mediated killing (LDH release), ASPC1 cells, human PBMCs E:T 10:1: 846 pM
  EC50 [pM] 48 h of T-cell mediated killing (LDH release), BxPC-3 cells, human PBMCs E:T 10:1: 3780 pM
  EC50 [pM] 48 h of T-cell mediated killing (LDH release), HPAFII cells, human PBMCs E:T 10:1: 667 pM
